Results from patent US20220213151A1.
Where two headings read alike, the source gives them in different places.

Tests used:
[1] = target: rhu EGFR (Fc) (human (rhu)) (UniProt P00533); assay: pH 6
[2] = target: rhu EGFR (Fc) (human (rhu)) (UniProt P00533)

Work on “A-dmDT390-EGF (other; other documents disagree on this pair)” yielded a Kd [1] of 102 nM and a Kd [2] of 5.81 nM.
